In the supplement of paper PMC9170038:

Tested on: K4 kissing-loop RNA reporter
Experiment: apparent KD of K4 kissing-loop reporter; higher = weaker reporter binding
Details: Eterna round: R107; input ligand: theophylline 20 uM
Procedure: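 RNA-MaP round R107: designed RNA switches with theophylline, tryptophan, arginine or FMN aptamers are transcribed on-chip within common flanks. They are titrated with a labelled K4 kissing-loop RNA reporter in RNA-MaP buffer (100 mM Tris pH 7.5, 80 mM KCl, 4 mM MgCl2), without ligand or with the indicated ligand. Median apparent KD per design.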
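Further: bound reporter read as fluorescence of individual clusters on recovered sequencing chips by microscopy, with normalized cluster intensities fitted with a binding model.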

| Sequence | apparent KD of K4 kissing-loop reporter |
| --- | --- |
| UUUGGUUUCUCGGCCGCCACUCGUUGUCUAUCGGCUUCAGGGAUAUAGUGAUGUUAUGUAUAGAAGAGGACCGGGAGAAGGUUUU [ExTryptoB.Dw] | 864 nM |
| AUUUUGGUUUAGAGUGAUGUUCCUUGUAUUCGAGGACCGGUACGGCCGCCACUCGGAUAGAAAAGAAAAGAAAUGUUUGAUUUUU [BDazzled - #8 SS Tryptophan A] | 260 nM |
| CUGACGCUGAUACGGUGGCCGAUGGUCGUGCGAGGACCGGUACGGCCGCCACUCGCAUGAGUGAUGUUCAUGUGUCGUCGUCGUC [#06 K4 Tryptophan A Exclusion] | 106 nM |
| AAAAUAACCCAGUGAUGUUGGUAUGCAGAUACCAGCGACGAAAGUCGCCCUUGGCAGCUGUGGACGUACAAAAUAAGUACGUCCU | 1220 nM |
| UGACAUUGCUCAGAUACCAGACAUGAGCAUCAGCCAUGUGCCAAACGUACAAUAAUAAAUGUCCCUUGGCAGCUGAGCAAUGUCU [TheoBX 14] | 100 nM |
| UUUGGUAUCUCGGCCGCCACUCGUGGGAAAUGGGCCUCAGGGAUAUAGUGAUGUUAUGUAAAGAAGAGGACCGGGAGAAGGAAGG [ExTryptoB.Dk] | 481 nM |
| AGUGGACGUGUCUGGAGUGAUGUUCUGGAUACCAGACACGAAAGUGUCCCUUGGCAGCCGGAGUGAUGUUCCGGCGUUCACUAAA [Omei KL Theo A Exc B v5] | 396 nM |
| AGAACUGUCUGAGAUACCAGCUAAGGAGUGAUGUUCCGGCUCGACGAAACGUCGAGCCAUAGCCCUUGGCAGCUCAGACAGUUCA [#27 K4 Theophylline B Same State] | 873 nM |

Same assay, conditions: Eterna round: R107; input ligand: tryptophan 2.4 mM

| Sequence | apparent KD of K4 kissing-loop reporter |
| --- | --- |
| GCUAAGGAGUGAUGUUCCAAGUGAUGUUAACGAGGACCGGUACGGCCGCCACUCGAUACGGCCGGAAAGUAAGAUAAACUACAGC [Same State - Tryptophan A (Freestyle 5)] | 82.8 nM |
| UGUGAUGAGUAGAGUGAUGUUUUGAAGGAUACCAGAGUGUUGUUAUUCCCUUGGCAGCUUGAGUGAUGUUUGAUGUUGUUGUAGU [zizmullin] | 196 nM |
| CGAGUCCUGAGGAGUGAUGUUCCUCGGCCACGAGGACCGGUACGGCCGCCACUCGUUACUCGGGCUUAGCAGCAAGCACUAAGCU [Acesote] | 127 nM |
| GUUACGCAUGGAAGGAGCGCACUCCGAUUGGUCGACACAGUGAUGUUGUGGUUCGUUCGAAUGCAGGUAGGUCGCCAUGUGUAAC [Ex Arginine B K4 18] | 150 nM |
| UGGAGUUGACGAAAAGUCAACUCCCGAGAAGGAGCGGACGAAAGUCCAGGUAGGUCGCUCGCUACCAGUGAUGUUGGUACUCAAA | 135 nM |
| UGUAAGCGCGUAGAUACCAGCAGACGAGUGAUGUUCAAAAGAUUAAGGAAAAGAAAGUAAUGCCCUUGGCAGCUAAUCAUAAGCG [whbob_Ex_Theo_B_sa92] | 295 nM |
| AUAUGCUUAGCGGCCGCCACUCCAAUUGGCCGAAAGGCCUGAUACCGAGUGAUGUUCGGUUGGAGGAGGACCGGGCUAGGCGUAU [#2 Exclusion - Tryptophan B Attempt #1 (HarryS)] | 141 nM |
| GGAUAGGACAGAGGAUAUGGUAGCUAGGCAAGAAUAACUUGUCUAGCAUCCAUGAGGAGUGAUGUUCCAGAAGGCUGUCCUAUCG [FmnBX 5 - #SwitchBubble #StaticStem] | 165 nM |
| AAUUUAUAUUUAUUCUUUAAUUGUUCAGAAGGAGCGUGAAUUAUCACAGGUAGGUCGCUGAGCUAGUGAUGUUAGCUAUAUACUA [JR_ExcArginiA_Sub008] | 58.4 nM |
| GGUAGCAUGGCGGCCGCCACUCUUCAUUAGUGAUGUUAAUGCCGAGUGCGCUAACUCCAACUGGAGAGGACCGGGCCAUGCUACC | 76 nM |
| GGGAAUUACGGAGGAUAUGCACUGAGGAGGAGAAUAUAGUGAUGUUAUAUAAGAGGAAGGAGAAGAGUAGAAGGCCGUGGAAAGG [SSFMNB.D] | 141 nM |
| AGCUCAGAGUGACUCGAUAAGAGUCACAAACGAGGACCGGUACGGCCGCCACUCGAAAUAAGGAGAGUGAUGUUCUCGCUGAGCA [FiskerMod 8 - Jieux - Same State Tryptophan A] | 345 nM |
| CCUAUCUCAUACGAUACCAGUCAAAUAAAUUAUAACGAGUGAUGUUCGAAAUGCCAUCACGACCCUUGGCAGCGUAUGGGAUAGG [Ex Theophylline B K4 1] | 125 nM |
| AAAUAAAUCGGAGGAUAUCCUUCCCACGUCGAAGUACCGUGCUUGAUGGAGUGAUGUUCGAUCAGAGGAGAAGGCCGAUAAAUAA [Same State FMN B GF20] | 777 nM |
| GGUGUUGUUUGUGCUGUUUUCUUUGUUUCUCGAGGACCGGUACGGCCGCCACUCGAGUGAUGUUUGGGUAGCGAUGUUUGUUAGU [Bdazzled - #2 - Exc. Tryptophan A] | 411 nM |
| ACGUAGUACGUAGGAUAUCAGAGAUCAGUUAGUGAGAUCGAGUGAUGUUCGAUCAUGUGUUCAUUUUGAGAAGGAUGUAGUAGGA [KL-SSFMN-B6] | 228 nM |

| Sequence | apparent KD of K4 kissing-loop reporter |
| --- | --- |
| UGUAUGUGAUUUGAUACCAGACCAGCUGGUGGAAUCUGAGUGAUGUUCAGGUAGGUUUGGGUCCCUUGGCAGCAAAUCGCAUACU [KL-SSTheoB27] | 170 nM |
| UCUUUAGUAUAUGAUACCAGCAGUGAGAGACAGGAAGUAUAGUGAUGUUAUAUGAGAGAAUGCCCUUGGCAGCGUGUGCGGUGGG [SSTheophylB.T] | 101 nM |
| UGACUGGAUGGAAGGAGCGCUAAACUCCUAGUGAUGUUAGGGAUACGAGGCAAAGCCUCGAGGCAGGUAGGUCGCCAUCUAGUCU [FiskerMod 24 - Jieux - Same State - Arginine B] | 136 nM |
| CAUUACGGUCGCUUACCAAACCACUACUUCCGAGGACCGGUACGGCCGCCACUCGCCAGUGAUGUUGGCUCGGGCGGCCGAUUAU [Orrebeante] | 106 nM |
| UACACGACUCGUGUAAACCGAGGUAACAGGCAGGAUAUGUAACGGAACAGAAGGGCCAUGUUGCGUGUCCAGUGAUGUUGGAUGC [Vetedile] | 246 nM |
| UAUACUAGACAAGAGAGAAUUCUCUCAAGAGAGGAUAUCCGAAUUCGGAGAAGGCUCGCUAAGUGAUGUUUGGAAUAGUCUAGAA [AK4 SS FMN A] | 384 nM |
| GGUGCCGGGCAAGGAUAUUAGUCGAGUGAUGUUCGGCGGUCCAAGUCGUUGCGGCGUUAAACCCUUUGAGAAGGUGCCCGGUGCC [#2 Exclusion - FMN B Attempt #1 (HarryS)] | 163 nM |
| CCGCCGGUCGGAAGGAGCGCACGCCAGAGUGAUGUUCUGGCGCAGGCAUUUAGUGCCCGCGUGCAGGUAGGUCGCCGAUUCUGGC [Arlaaa] | 270 nM |
| UUUGGUUUCUCGGCCGCCACUCGUUGUCUAUCGGCUUCAGGGAUAUAGUGAUGUUAUGUAUAGAAGAGGACCGGGAGAAGGUUUU [ExTryptoB.Dw] | 398 nM |
| AUUUUGGUUUAGAGUGAUGUUCCUUGUAUUCGAGGACCGGUACGGCCGCCACUCGGAUAGAAAAGAAAAGAAAUGUUUGAUUUUU [BDazzled - #8 SS Tryptophan A] | 298 nM |
| CUGACGCUGAUACGGUGGCCGAUGGUCGUGCGAGGACCGGUACGGCCGCCACUCGCAUGAGUGAUGUUCAUGUGUCGUCGUCGUC [#06 K4 Tryptophan A Exclusion] | 142 nM |
| AAAAUAACCCAGUGAUGUUGGUAUGCAGAUACCAGCGACGAAAGUCGCCCUUGGCAGCUGUGGACGUACAAAAUAAGUACGUCCU | 1520 nM |
| UGACAUUGCUCAGAUACCAGACAUGAGCAUCAGCCAUGUGCCAAACGUACAAUAAUAAAUGUCCCUUGGCAGCUGAGCAAUGUCU [TheoBX 14] | 44.8 nM |
| UUUGGUAUCUCGGCCGCCACUCGUGGGAAAUGGGCCUCAGGGAUAUAGUGAUGUUAUGUAAAGAAGAGGACCGGGAGAAGGAAGG [ExTryptoB.Dk] | 208 nM |
| AGUGGACGUGUCUGGAGUGAUGUUCUGGAUACCAGACACGAAAGUGUCCCUUGGCAGCCGGAGUGAUGUUCCGGCGUUCACUAAA [Omei KL Theo A Exc B v5] | 307 nM |
| AGAACUGUCUGAGAUACCAGCUAAGGAGUGAUGUUCCGGCUCGACGAAACGUCGAGCCAUAGCCCUUGGCAGCUCAGACAGUUCA [#27 K4 Theophylline B Same State] | 244 nM |
